The target of the experiment is T1, human Ptch-2 (SEQ ID NO:2) (human, UniProt Q9Y6C5 1-1203).
T1 construct: Its length is printed as 1203 residues in some places and 1204 in others; also called hPtch-2; patched-2
T1 sequence: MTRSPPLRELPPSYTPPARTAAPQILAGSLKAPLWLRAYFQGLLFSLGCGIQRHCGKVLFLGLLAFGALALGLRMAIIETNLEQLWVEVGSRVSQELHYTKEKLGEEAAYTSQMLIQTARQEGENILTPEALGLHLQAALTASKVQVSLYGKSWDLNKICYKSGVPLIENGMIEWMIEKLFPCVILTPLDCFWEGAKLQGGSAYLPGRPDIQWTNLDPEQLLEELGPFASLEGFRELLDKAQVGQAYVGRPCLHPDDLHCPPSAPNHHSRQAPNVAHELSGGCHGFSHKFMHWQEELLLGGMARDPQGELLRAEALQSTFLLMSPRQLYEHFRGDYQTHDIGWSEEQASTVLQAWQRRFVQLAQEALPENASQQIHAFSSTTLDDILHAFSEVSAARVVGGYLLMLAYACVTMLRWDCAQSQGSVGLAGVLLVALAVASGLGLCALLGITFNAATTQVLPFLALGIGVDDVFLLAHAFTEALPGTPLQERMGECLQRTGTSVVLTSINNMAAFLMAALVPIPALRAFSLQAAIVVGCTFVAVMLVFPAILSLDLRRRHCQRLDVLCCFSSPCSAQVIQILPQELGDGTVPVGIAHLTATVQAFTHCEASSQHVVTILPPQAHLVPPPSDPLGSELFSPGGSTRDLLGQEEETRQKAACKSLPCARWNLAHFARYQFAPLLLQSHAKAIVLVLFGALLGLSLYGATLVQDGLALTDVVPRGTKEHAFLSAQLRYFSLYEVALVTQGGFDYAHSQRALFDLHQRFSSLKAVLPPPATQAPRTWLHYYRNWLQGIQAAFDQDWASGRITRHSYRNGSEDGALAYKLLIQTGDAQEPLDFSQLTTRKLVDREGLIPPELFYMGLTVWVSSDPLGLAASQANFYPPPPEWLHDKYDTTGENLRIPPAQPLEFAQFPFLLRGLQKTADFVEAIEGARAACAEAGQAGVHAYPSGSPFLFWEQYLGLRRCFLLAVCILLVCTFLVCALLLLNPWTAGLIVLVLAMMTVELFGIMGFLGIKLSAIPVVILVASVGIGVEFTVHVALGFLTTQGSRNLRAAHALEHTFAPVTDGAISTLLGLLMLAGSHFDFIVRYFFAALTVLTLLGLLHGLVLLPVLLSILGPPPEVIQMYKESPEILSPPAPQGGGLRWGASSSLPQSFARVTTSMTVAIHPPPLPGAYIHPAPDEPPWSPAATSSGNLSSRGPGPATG
Nature of the experiment: Scatchard analysis of displacement of 125I-Shh from 293 cells expressing Ptch-2. The protocol: As shown on FIG. 7A, binding of ¹²⁵I-Shh can be competed with an excess of Shh, Dhh or Ihh (SEQ ID NOS: 14, 13, and 29, respectively).
To determine whether Ptch-2 is able to bind to the various hedgehog ligands, 293 cells were transfected with Ptch (SEQ ID NO:4) or Ptch-2 (SEQ ID NO:2) using standard procedures. Cells were incubated with 100 pM ¹²⁵I-Shh (19 kD amino terminal fragment of murine Shh (SEQ ID NO:14)) in the presence or absence of excess unlabeled Shh (SEQ ID NO:14) or Dhh (SEQ ID NO:13) for 2 h at room temperature. After equilibrium was reached, the ligand bound cells were centrifuged through a continuous sucrose gradient to separate unincorporated and then counted in a scintillation counter. […] Varying concentrations of cold competitor indicate that the 2 ligands have similar affinity for Ptch (SEQ ID NO:4) and Ptch-2 (SEQ ID NO:2).
For orientation: Displacement assays read how much labelled ligand stays bound in the presence of the test substance.

B1: Dhh (SEQ ID NO:13) (ligand)
chain: not shown
notes: also called Desert Hh; Desert hedgehog
B1: binding was characterised by a dissociation constant (Kd) of 0.6 nM.

B2: Ihh (SEQ ID NO:29) (ligand)
chain: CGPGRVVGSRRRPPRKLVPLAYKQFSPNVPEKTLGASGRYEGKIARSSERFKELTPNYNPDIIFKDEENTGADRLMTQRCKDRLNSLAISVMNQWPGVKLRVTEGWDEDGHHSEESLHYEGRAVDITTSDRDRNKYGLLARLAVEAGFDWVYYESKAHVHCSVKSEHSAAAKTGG
notes: also called Indian Hh
B2 showed a dissociation constant Kd of 0.4 nM.

For orientation: Kd means the concentration at which binding is half-saturated.
